Biological target: T1, soluble Wnt decoy receptor sLRP6E1E2 (FLAG-tagged E1 and E2 extracellular domains of LRP6) (Homo sapiens (Human), UniProt O75581 20-651)
T1 construct: Expressed in the assay cells from the adenoviral vector dE1-k35/sLRP6E1E2 and not added as purified protein; also called soluble LRP6 receptor; decoy Wnt receptor; not shown: FLAG tag
T1 sequence: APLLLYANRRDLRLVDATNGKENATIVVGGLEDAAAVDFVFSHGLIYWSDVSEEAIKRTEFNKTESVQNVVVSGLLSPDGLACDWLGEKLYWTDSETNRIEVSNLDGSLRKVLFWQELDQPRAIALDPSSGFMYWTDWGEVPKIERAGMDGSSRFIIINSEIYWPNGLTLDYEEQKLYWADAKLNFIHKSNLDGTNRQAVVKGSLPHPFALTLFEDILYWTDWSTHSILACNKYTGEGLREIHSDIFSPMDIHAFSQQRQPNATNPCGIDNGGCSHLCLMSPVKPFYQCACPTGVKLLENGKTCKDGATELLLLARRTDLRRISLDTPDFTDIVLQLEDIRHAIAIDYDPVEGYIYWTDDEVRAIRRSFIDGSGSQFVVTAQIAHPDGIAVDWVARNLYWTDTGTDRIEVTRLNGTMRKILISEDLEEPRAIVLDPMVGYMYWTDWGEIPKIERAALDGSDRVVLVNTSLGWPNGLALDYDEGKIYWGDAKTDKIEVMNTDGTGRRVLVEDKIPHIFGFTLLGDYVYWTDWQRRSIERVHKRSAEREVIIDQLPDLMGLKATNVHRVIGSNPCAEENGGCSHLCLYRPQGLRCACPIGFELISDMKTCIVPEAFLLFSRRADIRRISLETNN
Test: immunoprecipitation of lysates of transduced H322 and H460 cells with anti-Wnt3a or anti-LRP6, then western blot
Description: FIG. 1 represents characterization of the decoy Wnt receptor sLRP6E1E2. FIG. 1a is schematic representation of the genomic structure of Ad vectors used. […] Cell culture supernatants were assessed with FLAG- or LRP6-specific Ab. (d) H322 and H460 cells were transduced with dE1-k35/LacZ or dE1-k35/sLRP6E1E2 (50 MOI) for 48 hr. Cell lysates were immunoprecipitated with antisera against Wnt3a (IP: Wnt3a) or LRP6 (IP: LRP6) followed by western blot (WB) analysis with the same antibodies.
Next, binding of sLRP6E1E2 to Wnt3a was assessed in cells transduced with dE1-k35/LacZ or dE1-k35/sLRP6E1E2. Cell lysates were immunoprecipitated with anti-Wnt3a or anti-LRP6 antibodies and analyzed by western blot.

B1: Wnt3a, endogenous in human non-small cell lung cancer cell lines H322 and H460 (ligand, UniProt P56704 19-352, looked up)
chain: SYPIWWSLAVGPQYSSLGSQPILCASIPGLVPKQLRFCRNYVEIMPSVAEGIKIGIQECQHQFRGRRWNCTTVHDSLAIFGPVLDKATRESAFVHAIASAGVAFAVTRSCAEGTAAICGCSSRHQGSPGKGWKWGGCSEDIEFGGMVSREFADARENRPDARSAMNRHNNEAGRQAIASHMHLKCKCHGLSGSCEVKTCWWSQPDFRAIGDFLKDKYDSASEMVVEKHRESRGWVETLRPRYTYFKVPTERDLVYYEASPNFCEPNPETGSFGTRDRTCNVSSHGIDGCDLLCCGRGHNARAERRREKCRCVFHWCCYVSCQECTRVYDVHTCK
notes: Present in cell lysates in the immunoprecipitation; also called Wnt 3a protein
B1: binds.

Reference: patent publication US20140315825A1 (GENEMEDICINE, published 2014)
